{"source": "the DeepSol protein solubility set"}
{"experiment": "soluble on expression in E. coli; label from the status in PepcDB or PDB records"}
{"sequence": "MSLSSDSQEIRRSILSKWHKTLSKYGNLFSSDTISGTSPPSVFVGSYNYPKVFVGPMVPPIHGDTSLLDSPEKWKGRSLEEIINFRLNLVRGIHKTGIEHTEGRYIENLQEITMSEKPTDLDLVFMKNTSSNISMDGESAPFGPTGEIKSAKFSGSSSTKPIEKIFYDKDMKAQDAVLKLYNSGIEISKIQKCFSIGMLGKKRKLVPTKWSITATDDIISKSIVKEILENSIIDTCKVFSYEHLGNVFSVILFPHRWIFEMIEGWYSNGILGFGSDSEDARGIDHPPRIAGAYFAAKLGVSEYLLKNKIQAGVLIFREIRPEYAIPVGVWQVREGIREAMKQKPQIVSDFNHALNLASAKTSVSKKEWIVNGDMINRVRQKTILDFMEGHHHHHH", "soluble on expression in E. coli": "not soluble"}
{"sequence": "AEEGAVAVCVRVRPLNSREESLGETAQVYWKTDNNVIYQVDGSKSFNFDRVFHGNETTKNVYEEIAAPIIDSAIQGYNGTIFAYGQTASGKTYTMMGSEDHLGVIPRAIHDIFQKIKKFPDREFLLRVSYMEIYNETITDLLCGTQKMKPLIIREDVNRNVYVADLTEEVVYTSEMALKWITKGEKSRHYGETKMNQRSSRSHTIFRMILESREKGEPSNCEGSVKVSHLNLVDLAGSERAAQTGAAGVRLKEGCNINRSLFILGQVIKKLSDGQVGGFINYRDSKLTRILQNSLGGNPKTRIICTITPVSFDETLTALQFASTAKYMKNTPYVNEVSTDEALEHHHHHH", "soluble on expression in E. coli": "soluble"}
{"sequence": "MKTKDQIDNIVKETYRHIDFSGVILVKEKKGIVYEEVFGYANRNECINNTLQTRFGIASGCKIFTAIGICQLVENGVITFQTKLKECLSVNFPNFNEDITIHHLLTHSSGIPDYFDESIMDNFEDLWKQTPMYLLKSLKDFLPLFQNRDMMYAPGSKFHYNNAGFIILGLIIEEQTGLTFTEYIEKNIFNPIGMNHSGYFSLDRLPRQTALGYIKDEISQTWRTNAYSIPIKGGSDGGAFITASDMLKFWEALFNYEIISQEYTKILLTPHIQVNNNQSYGYGIWIETRENKIFKYHVMGYDPGVSFRSAVYPDLGITLVIPSNKGAGAEKLMIEIEGSF", "soluble on expression in E. coli": "not soluble"}
{"sequence": "MQVHSGETEILRKAVEDYFCFCYGKALGTTVMVPVPYEKMLRDQSAVVVQGLPEGVAFQHPENYDLATLKWILENKAGISFIINRPFLGPESQLGGPGMVTDAERSIVSPSESCGPINVKTEPMEDSGISLKAEAVSVKKESEDPNYYQYNMQGSHPSSTSNEVIEMELPMEDSTPLVPSEEPNEDPEAEVKIEGNTNSSSVTNSAAGVEDLNIVQVTVPDNEKERLSSIEKIKQLREQVNDLFSRKFGEAIGVDFPVKVPYRKITFNPGCVVIDGMPPGVVFKALGYLEISSMRRILEAAEFIKFTVIRPLPGLELSNVGKRKIDQEGRVFQEKWERAYFFVEVQNIPTCLICKQSMSVSKEYNLRRHYQTNHSKHYDQYTERMRDEKLHELKKGLRKYLLGSSDTECPEQKQVFANPSPTQKSPVQPVEDLAGNLWEKLREKIRSFVAYSIAIDEITDINNTTQLAIFIRGVDENFDVSEELLDTVPMTGTKSGNEIFLRVEKSLKKFCINWSRLVSVASTGTPAMVDANNGLVTKLKSRVATFCKGAELKSICCIIHPESLCAQKLKMDHVMDVVVKSVNWICSRGLNHSEFTTLLYELDSQYGSLLYYTEIKWLSRGLVLKRFFESLEEIDSFMSSRGKPLPQLSSIDWIRDLAFLVDMTMHLNALNISLQGHSQIVTQMYDLIRAFLAKLCLWETHLTRNNLAHFPTLKLVSRNESDGLNYIPKIAELKTEFQKRLSDFKLYESELTLFSSPFSTKIDSVHEELQMEVIDLQCNTVLKTKYDKVGIPEFYKYLWGSYPKYKHHCAKILSMFGSTYICEQLFSIMKLSKTKYCSQLKDSQWDSVLHIAT", "soluble on expression in E. coli": "soluble"}
{"sequence": "MAGKWNVLSLLAFRPCQPALPHDNHGGGMDAIYLKLDGIEGESRIKGFENQIKLIAYNHNPTKRESGEARGTYIGGLTLTKPVDLATPGLYEHYCNGKTVKEGVLTLCRRDKGAMLPFIIYTLTNVRISRMSNHGDAEGSATETVDLVYSHIRWDIPALASKSKTRRPLHRQALWR", "soluble on expression in E. coli": "not soluble"}
{"sequence": "MLKVESISKDYREFKLREISFDVREGEHFIILGPSGSGKTVLLEIIAGIISPDRGRILLRGEDITGLPPEKRNFSYIPQNYALFPHMTVFDNIAFGLKLRKIPRKEVARKVREVAESLGIDHLLHRKPRTLSGGEQQRVAIARALVVKPELLLMDEPFANLDVQTKSKLIREMKRWRKEFGFTAIHVTHSFEEALSLGDRVGIMLRGRLVQVGDVRDVFSKPKSEEVARFLGFENIIEGVANGRILKVGDLRIELPREVWGKVRVGIRPEDITIFMEGVKTSARNVFKARVEGIEDLGALVKLTLNLGGIILRAFITRSSLIELGIREGEEVYASFKASAIHVFP", "soluble on expression in E. coli": "soluble"}
